According to patent US20140287419A1, “Compositions Having Dicamba Decarboxylase Activity and Methods of Use” (priority 2013, published 2014):
Substitutions are numbered along the chain they refer to.

B1: 45 (protein)
chain: MANDDLAEVIAAHPDRFAGFAALPMRDPQAAAVELQRAVGTHGFCGAMINGLIEGRFLDDPAFAPLLSTAADLGVPLYLHPSFPPPQVAEIYFGGLAPVLGDLLATAGWGWHAETALHVLRLVATGVFDRLPELWVIVGHMGEMIPFALARIDTVLSPVAQLRQPVAQYFQTNVWFTTSGYTTFPPLQCALSTVGIDRLIFSVDYPYTDNTSARALLDTAPISPVDREKLAHGTVEALLRV
modifications: Mycobacterium sp
B2: 49 (protein, listed as Streptomyces sp.)
chain: MAKIIALEEHFSDPAVAKAGAARARALSPGFAASYSPASGLPYSPSPEVLENLAEKRLADMDAGGITMQVLSGLGAQTVPADVAPALVAGSNDKAAAAVRAHPDRFAAFAALPTATPEAAVAELDRSVNELGFVGTLIMGRTEGEFLDAPRFEPILARAAALKVPVFLHPGVPPREITDSNYAAGLPTGIGTRLQTAAWGWHQETAVHFLHLVHSGVLDRYPDLQFILGHWGEMIPFYLDRVDEALPQRATGLDRSFHEYFRENVYLAPSGMWSQAQLRFCLETVPLERIVFAVDYPFIGNEGAVPFLEKAELPQADKRKIAHENAERLLGL
B3: 52 (protein, listed as Streptomyces sp.)
chain: B2 chain with R25Q, G75S, T116A, M234T, V285F, Q315E
B4: 43 (protein, listed as Rhizobium leguminosarum)
chain: MAQGKIALEEHFAIPETLQDSAGFVPGDYWTELSARLLDIQDKRLRLMDTHGIEKMILSLNAPAVQAIPDKAKAVEISRRANDFLAEQCVKNPNRFLGFAALPLQDPDAATQELQRCVTTMGFVGALVNGFSQEGDGTTPLYYDLPQYRPFWAEVEKLDVPFYLHPRNPLPQDSRIYAGHSWLMGPTWAFAQETAVHALRLMGSGLFDEHPALRIIVGHMGEGLPYMMWRIDNRNAWVKVEKSYPAKRPIADYFNENFYITTSGNFRTQSLIDAMLEIGADRILFSADWPFENVDHAANWFDSATISEADRLKIGRTNAVSLFKLDR
B5: 44 (protein, listed as Mycobacterium avium)
chain: MARIITVEEHFQHPEVSARVAELTGPAVEGLAEFGNAFSLDPDSTARLGGNRLAHMDQVGIDVQVVSHGNGSPGTLQHPEAVELCRRVNNDLAAQIAENPDRFRGFATLPLYDPAAAAEELRRCVGDLGFVGALIAGSYDGLFLDDERFDPILTAAEAVDFPIYVHPGLPEAPVSQRYYAGSWPASVHMMFSGPAFGWHAEAGIHIVRLILSGALDRHPTLKLLSGHWGELAAFYLERLDETLGLLPTGLERAPSDYYRQQVWITPSGMYNQNQLNFMTAELGAQRIIYSEDFPYVVRDNVSTFLEQAGLSEADTHAIAHTNAEALLRI
B6: 48 (protein, listed as Amycolatopsis mediterranei)
chain: MASMKLYGLEEHFVTADVIEAWRRRDPGLAEPMMKWAVASDITPALLDVDGGRIAAMDDAGIDTTVLSLTTPGLQNLDAAEAVALQAPTNDLIAAAVRRHPGRFQGFATLATSAPAAAADELRRAVTELGLNGALVNANSRGRALDAPGFWDIYEAAEDLRAPVYLHPGVPVPAVTEAYYRGFGEPVNSMLATGAFGWHYDAGLTILRMIVAGVFDRFPGLQVILGHWGEVVLFYLDRVAAMDKLTALRRPIAEYFRSNIFITPGGISSHKYLRWSLETVGVERIMYASDYPFNTERAGSARRFLDTAPVDEAGRERIAYRNWEELIAGIRR
B7: 47 (protein, listed as Serratia odorifera)
chain: MAKIICLEEHTLDKALVMASMPAALAQAPFLSDWGKTITDGNLPDRSRPQIEKNDLINVKGADIGRGRLDDMDEAGITMQVLSVGGFPHLISAAEGVDLNRAANDRLANAVNAHPDRFAAFATLPWAQPDAAEKELERAVKELGFKGALLNGRPSIHFLDHPDYDGLLARFNALGVPLYLHPGLPVRSVQQAYYSGFSDEVTARLSMFGWGWHHEAGIHLLRLILSGAFDKYPNLQVISGHWGEMLPFWLQRLDDSLPQAATGLRRTITQTFREQVYVTPSGMLTLPHFQFIYALLGAERILFSVDYPYQTLDGVKAFIQSLPVPEEAKEAIAFRNAERLFGLTS
B8: 50 (protein, listed as Streptomyces sp.)
chain: MARIVTLEEHWTDPAVTAAGMPNLLDHVPGYAAAFDPDTGMPYPRHPELLEDLGAARIADMDRHGITTQVLSLVNTFLPADVAPRLTAAANDAMAAAVEAFPGRFAAFATLPTAVPGAAADELRRCVGELGFVGTMIMGRTDGEFLDQPRFDPILRAASDLSVPVYLHPAPPPVAVSEASYAGGLSPAVSAAFRLAAWGWHQETAVHLLHLVLAGVLDRYPGLQFVLGHWGEFIPFYLDRLDESMPRRMTGLDRTFREYFRDNVFITPSGMFSQAQLRYCADTVGTDRIIHSVDFPMLGNEGAVSFLTDSHLSREDQEKIAHGNADALLGLG
B9: 51 (protein, listed as Mycobacterium gilvum)
chain: MARVIAIEEHYAHPGLQPAEALANLRKHPQLARIQDKLEDLGAGRLADMDAAGIDMQVLSHTVPGAEALPAAQAVDVVRQTNDDLAEVIAAHPDRFAGFAALPMRDPQAAATELQRAVGTLGFCGAMINGLIEGRFLDHPDFTPLLSTAADLGVPLYLHPSFPPPQVAQIYFGGLPPVLADLLATAGWGWHAETALHVLRLISTGVFDRLPELRVIVGHMGEMIPFALARIDTVLSPMTELRQPVAQYFQTNVWFTTSGYTTFPPLQCALSTVGIDRLIFSVDYPYTDNASARALLDTAPISPVDREKLAHATVEALLRV
B10: 46 (protein, listed as Rhodococcus opacus)
chain: MARIITLEEHYLDPAIAAASAPLARELSPDFAAAYDPASGLSYTPSAQVLQDLGQRRIADMDTHGISMQVLSCLTTQQVPADVAPDLVRAANDTAAAAVRAHPDRFAAFAALPTTAPDAAATELARCIDDLGFVGTMINGRTDGEFLDAPRFDPILATAAARNVPIYLHPAVPPRATSDSNYAGLAPLVTARLQTSAWGWHQETAVHFLHLVLSGVLDRYPNLQFILGHWGEMIPFYLDRLDEALPQAVTNLDRTISDYVRENVYITPSGMFNQAQLQYCVETLGVDRILYSVDYPFIGNDGAVSFLDEANLPDEAKHQIAHQNTEKLLGL
B11: 53 (protein, listed as Granulicella tundricola)
chain: MARTITLEEHFVTDSFLRATGAYDKPAPPWLAQLQPKLLDLGDGRIAAMDEAGIDLQVLSLAALGFDALDAATATPLVHDINDELAAAVRANPTRLAAFASLALKDPQSAARELERAIQKLGFRGVLLDGTTDGLFLDDPRFTPVFEAAVALNVPIYLHPAPPPESVFDTYFTGLPEGVGQMLSIAGWGWHAETALHTLRLITNGVFDRYPTLQLIIGHMGEMLPMALARTSKALSHAARLRQPVAAYFQSNIHLTTSGYFTQPPLRCALDVVGIDRLMFSIDYPFSANTLGRDYLTELEQTLTPEDLAKLIHRNAESLLNLS

Test: 14C assay with IPTG-induced recombinant E. coli cells (14CO2 capture from [14C]-carboxyl-labeled dicamba)
Settings: for Dicamba Decarboxylase Activity: IPTG-induced recombinant E. coli cells, [14C]-carboxyl-labeled dicamba, 14CO2 capture; for Enzymatic Detection level: dicamba decarboxylation activity of the protein of the given SEQ ID NO

Molecule	Dicamba Decarboxylase Activity	Enzymatic Detection level
B1	No	No
B2	High	High
B3	High	High
B4	High	High
B5	High	High
B6	High	High
B7	High	High
B8	High	High
B9	High	High
B10	High	High
B11	High	High
